Measurements as given in patent publication US20240002497A1 (Merck Sharp & Dohme, published 2024).

How the values were obtained:
rhNav1.7α + β1-β2-β3 [1] = target: T1, rhNav1.7α + β1-β2-β3 (rhesus monkey); test: binding FACS, CHO FlpIn
T1 construct: also called rhNav1.7-beta1-beta2-beta3; rhNav1.7-β1-β2-β3
Experimental: (§1) Binding of the ISVDs to cell-expressed Nav1.7α was detected via murine anti-Flag (Sigma, catalog #F1804). Briefly, cells were resuspended in FACS buffer (PBS, 10% FBS, NaN₃) and transferred to a 96-well V-bottom plate at 1×10^5 cells/well. Purified FLAG3-tagged ISVD was diluted in FACS buffer and added to the cells for 30 minutes at 4° C. […] Prior to the read-out, the samples were resuspended in 1 μg/mL propidium iodide (Sigma, catalog #P4170) to exclude dead cells. Between each step, the cells were centrifuged for 5 minutes at 200 grams and washed with 100 μL/well FACS buffer.

huNav1.7α + β1-β2-β3 [2] = target: T2, huNav1.7α + β1-β2-β3 (human, UniProt Q15858 1-1988; A5A6L6 19-218; O60939 30-215; Q2KI11 23-215); test: binding FACS, CHO FlpIn
T2 construct: also called huNav1.7-beta1-beta2-beta3; huNav1.7-β1-β2-β3
Experimental: as §1

huNav1.7α + β1-β2-β3 [3] = target: T3, huNav1.7α + β1-β2-β3 (human, UniProt Q15858 1-1988; A5A6L6 19-218; O60939 30-215; Q2KI11 23-215); test: binding FACS, CHO FlpIn cells
T3 construct: Cell line (CHO FlpIn, HEK FlpIn, transient HEK293T) is named under assay; also called huNav1.7-beta1-beta2-beta3; human Nav1.7α with Navβ1, Navβ2 and Navβ3
Experimental: as §1

rhNav1.7α + β1-β2-β3 [4] = target: T4, rhNav1.7α + β1-β2-β3 (rhesus monkey); test: binding FACS, CHO FlpIn cells
T4 construct: also called rhNav1.7-beta1-beta2-beta3; rhesus Nav1.7α
Experimental: as §1

[5] = target: T5, huNav1.7α + β1-β2-β3 (human Nav1.7α co-expressed with human Navβ1, Navβ2 and Navβ3 on cells) (human); test: binding FACS, CHO FlpIn cells
T5 construct: also called huNav1.7-beta1-beta2-beta3; CHO FlpIn huNav1.7α + β1-β2-β3
Experimental: as §1

Row | Binder | Bmax (huNav1.7α + β1-β2-β3 [3]) | EC50 (huNav1.7α + β1-β2-β3 [3]) | Bmax (rhNav1.7α + β1-β2-β3 [4]) | EC50 (rhNav1.7α + β1-β2-β3 [4]) | further results
1 | F010302334 (VHH) VHH: EVQLVESGGGVVQPGGSLRLSCAASSRQFIRDVFTGWYRRAPGKQRELVARIYNEGNTQYADSAKGRFTISRDNAKKTVYLQMNSLRPEDTALYYCLFSGTISTGREYRSGDYWGQGTLVTVSS | – | – | – | – | Bmax (rhNav1.7α + β1-β2-β3 [1]): 70%; EC50 (rhNav1.7α + β1-β2-β3 [1]): 11 nM; Bmax (huNav1.7α + β1-β2-β3 [2]): 100%; EC50 (huNav1.7α + β1-β2-β3 [2]): 4 nM
2 | F010302335 (VHH) VHH: EVQLVESGGGVVQPGGSLRLSCAASSRQFIRDVFTGWYRRAPGKQRELVARIYESGNTQYADSAKGRFTISRDNAKKTVYLQMNSLRPEDTALYYCLFSGTISTGREYRSGDYWGQGTLVTVSS | – | – | – | – | Bmax (rhNav1.7α + β1-β2-β3 [1]): 84%; EC50 (rhNav1.7α + β1-β2-β3 [1]): 13 nM; Bmax (huNav1.7α + β1-β2-β3 [2]): 100%; EC50 (huNav1.7α + β1-β2-β3 [2]): 4.1 nM
3 | F010302336 (VHH) VHH: EVQLVESGGGVVQPGGSLRLSCAASHRQFIRDVFTGWYRRAPGKQRELVARIYNEGNTQYADSAKGRFTISRDNAKKTVYLQMNSLRPEDTALYYCLFSGTISTGREYRSGDYWGQGTLVTVSS | – | – | – | – | Bmax (rhNav1.7α + β1-β2-β3 [1]): 79%; EC50 (rhNav1.7α + β1-β2-β3 [1]): 9.7 nM; Bmax (huNav1.7α + β1-β2-β3 [2]): 100%; EC50 (huNav1.7α + β1-β2-β3 [2]): 3.6 nM
4 | F010302365 (VHH) VHH: EVQLVESGGGVVQPGGSLRLSCAASSRAFIRDVFTGWYRRAPGKQRELVARIYNGGNTNYADSAKGRFTISRDNAKKTVYLQMNSLRPEDTALYYCLFSGTISTGREYRSGDYWGQGTLVTVSS | 100% | 3.1 nM | – | – | binding result (rhNav1.7α + β1-β2-β3 [4]): no binding
5 | F010302354 (VHH) VHH: EVQLVESGGGVVQPGGSLRLSCAASHRAFIRDVFTGWYRRAPGKQRELVARIYESGNTQYADSVKGRFTISRDNAKKTVYLQMNSLRPEDTALYYCLFSGTISTGREYRSGDYWGQGTLVTVSS | 100% | 4.2 nM | 96% | 7.9 nM | –
6 | F010302360 (VHH) VHH: EVQLVESGGGVVQPGGSLRLSCAASHRQFIRDVFTGWYRQAPGKQRELVARIYNEGNTQYADSVKGRFTISRDNAKKTVYLQMNSLRPEDTALYYCLFSGTISTGREYRSGDYWGQGTLVTVSS | 100% | 3.5 nM | 58% | 15 nM | –
7 | F010302364 (VHH) VHH: EVQLVESGGGVVQPGGSLRLSCAASHRAFIRDLFTGWYRQAPGKQRELVARIYESGNTNYADSVKGRFTISRDNAKKTVYLQMNSLRPEDTALYYCLFSGTISTGREYRSGDYWGQGTLVTVSS | 100% | 7.2 nM | 74% | 17 nM | –
8 | F010302359 (VHH) VHH: EVQLVESGGGVVQPGGSLRLSCAASSRQFIRDVFTGWYRQAPGKQRELVARIYESGNTQYADSVKGRFTISRDNAKKTVYLQMNSLRPEDTALYYCLFSGTISTGREYRSGDYWGQGTLVTVSS | 100% | 6.4 nM | 66% | 24 nM | –
9 | F010302362 (VHH) VHH: EVQLVESGGGVVQPGGSLRLSCAASHRAFIRDVFTGWYRQAPGKQRELVARIYESGNTQYADSVKGRFTISRDNAKKTVYLQMNSLRPEDTALYYCLFSGTISTGREYRSGDYWGQGTLVTVSS | 100% | 5.4 nM | 89% | 14 nM | –
10 | F010302353 (VHH) VHH: EVQLVESGGGVVQPGGSLRLSCAASHRQFIRDVFTGWYRRAPGKQRELVARIYEGGNTQYADSVKGRFTISRDNAKKTVYLQMNSLRPEDTALYYCLFSGTISTGREYRSGDYWGQGTLVTVSS | 100% | 4.2 nM | 93% | 7.9 nM | –
11 | F010302368 (VHH) VHH: EVQLVESGGGVVQPGGSLRLSCAASSRAFIRDVFTGWYRQAPGKQRELVARIYNGGNTNYADSVKGRFTISRDNAKKTVYLQMNSLRPEDTALYYCLFSGTISTGREYRSGDYWGQGTLVTVSS | 100% | 3.9 nM | – | – | binding result (rhNav1.7α + β1-β2-β3 [4]): no binding
12 | F010302352 (VHH) VHH: EVQLVESGGGVVQPGGSLRLSCAASHRQFIRDVFTGWYRRAPGKQRELVARIYNEGNTQYADSVKGRFTISRDNAKKTVYLQMNSLRPEDTALYYCLFSGTISTGREYRSGDYWGQGTLVTVSS | 100% | 3.6 nM | 60% | 11 nM | –
13 | F010302357 (VHH) VHH: EVQLVESGGGVVQPGGSLRLSCAASSRQFIRDVFTGWYRQAPGKQRELVARIYNEGNTNYADSVKGRFTISRDNAKKTVYLQMNSLRPEDTALYYCLFSGTISTGREYRSGDYWGQGTLVTVSS | 100% | 5.3 nM | – | – | binding result (rhNav1.7α + β1-β2-β3 [4]): no binding
14 | F010302366 (VHH) VHH: EVQLVESGGGVVQPGGSLRLSCAASSRAFIRDVFTGWYRQAPGKQRELVARIYNGGNTNYADSAKGRFTISRDNAKKTVYLQMNSLRPEDTALYYCLFSGTISTGREYRSGDYWGQGTLVTVSS | 100% | 3.7 nM | – | – | binding result (rhNav1.7α + β1-β2-β3 [4]): no binding
15 | F010302358 (VHH) VHH: EVQLVESGGGVVQPGGSLRLSCAASSRQFIRDVFTGWYRQAPGKQRELVARIYNEGNTQYADSVKGRFTISRDNAKKTVYLQMNSLRPEDTALYYCLFSGTISTGREYRSGDYWGQGTLVTVSS | 100% | 4.5 nM | 37% | 37 nM | –
16 | F010302355 (VHH) VHH: EVQLVESGGGVVQPGGSLRLSCAASHRAFIRDVFTGWYRRAPGKQRELVARIYEGGNTQYADSVKGRFTISRDNAKKTVYLQMNSLRPEDTALYYCLFSGTISTGREYRSGDYWGQGTLVTVSS | 100% | 3.5 nM | 97% | 6.8 nM | –
17 | F010302363 (VHH) VHH: EVQLVESGGGVVQPGGSLRLSCAASHRAFIRDVFTGWYRQAPGKQRELVARIYEGGNTQYADSVKGRFTISRDNAKKTVYLQMNSLRPEDTALYYCLFSGTISTGREYRSGDYWGQGTLVTVSS | 100% | 4.2 nM | 96% | 9.3 nM | –
18 | F010302361 (VHH) VHH: EVQLVESGGGVVQPGGSLRLSCAASHRQFIRDVFTGWYRQAPGKQRELVARIYEGGNTQYADSVKGRFTISRDNAKKTVYLQMNSLRPEDTALYYCLFSGTISTGREYRSGDYWGQGTLVTVSS | 100% | 4.8 nM | 92% | 11 nM | –
19 | F010302356 (VHH) VHH: EVQLVESGGGVVQPGGSLRLSCAASHRAFIRDLFTGWYRRAPGKQRELVARIYESGNTNYADSVKGRFTISRDNAKKTVYLQMNSLRPEDTALYYCLFSGTISTGREYRSGDYWGQGTLVTVSS | 100% | 5.3 nM | 81% | 12 nM | –
20 | F010302316 (VHH, also called F0103387G04(L11V, A12V, K33R, R39Q, S50Y, S56D, T60A, G73A, W78V, S79Y, T83R, V89L, N93R, D99R, N100cI)-FLAG3-HIS6) VHH: EVQLVESGGGVVQPGGSLRLSCAASGPVFNINRMAWYRQAPGKQRELVAYVTPTGDISYADSVKGRFTISRDASKRVYLQMNSLRPEDTALYYCRALLQPRSYSITRTYWGQGTLVTVSS | – | – | – | – | Bmax [5]: 91%; EC50 [5]: 8.2 nM
21 | F010302321 (VHH, also called F0103387G04(L11V, A12V, K33R, R39Q, S50Y, S56D, T60A, G73R, W78V, S79Y, T83R, V89L, N93R, S100R, N100cI)-FLAG3-HIS6) VHH: EVQLVESGGGVVQPGGSLRLSCAASGPVFNINRMAWYRQAPGKQRELVAYVTPTGDISYADSVKGRFTISRDRSKRVYLQMNSLRPEDTALYYCRALLQPDRYSITRTYWGQGTLVTVSS | – | – | – | – | Bmax [5]: 91%; EC50 [5]: 7.9 nM
22 | F010302324 (VHH, also called F0103387G04(L11V, A12V, K33R, R39Q, S50Y, S56D, T60A, G73R, W78V, S79Y, T83R, V89L, N93R, D99R, S100R, N100cI)) VHH: EVQLVESGGGVVQPGGSLRLSCAASGPVFNINRMAWYRQAPGKQRELVAYVTPTGDISYADSVKGRFTISRDRSKRVYLQMNSLRPEDTALYYCRALLQPRRYSITRTYWGQGTLVTVSS | – | – | – | – | Bmax [5]: 42%; EC50 [5]: 29 nM
23 | F010302319 (VHH, also called F0103387G04(L11V, A12V, K33R, R39Q, S50Y, S56D, T60A, G73A, W78V, S79Y, T83R, V89L, N93R, S100R, N100cI)-FLAG3-HIS6) VHH: EVQLVESGGGVVQPGGSLRLSCAASGPVFNINRMAWYRQAPGKQRELVAYVTPTGDISYADSVKGRFTISRDASKRVYLQMNSLRPEDTALYYCRALLQPDRYSITRTYWGQGTLVTVSS | – | – | – | – | Bmax [5]: 88%; EC50 [5]: 15 nM
24 | F010302318 (VHH, also called F0103387G04(L11V, A12V, K33R, R39Q, S50Y, S56D, T60A, W78V, S79Y, T83R, V89L, N93R, S100R, N100cI)) VHH: EVQLVESGGGVVQPGGSLRLSCAASGPVFNINRMAWYRQAPGKQRELVAYVTPTGDISYADSVKGRFTISRDGSKRVYLQMNSLRPEDTALYYCRALLQPDRYSITRTYWGQGTLVTVSS | – | – | – | – | Bmax [5]: 89%; EC50 [5]: 11 nM
